Laboratory results as given in patent US20240279288A1, “APPLICATION OF PLANT JAZ PROTEINS AND DERIVED POLYPEPTIDES IN PREVENTION AND TREATMENT OF HUMAN AND ANIMAL TUMORS” (ANYANG INSTITUTE OF SINO-COTTON INDUSTRY INNOVATION, priority 2021, published 2024).

Tests used:
MCF7 breast cancer cells = assay: Apoptosis detection (Annexin V-FITC/PI), MCF7; assay type: cell-based, human; details: 0.691 μM, 24 h, vs PBS
Description: Apoptosis detection: cells were collected in 1.5 EP tubes and centrifuged at 300 g for 5 min, with the supernatant discarded, followed by collecting the cells, washing with PBS and resuspending. 1×10^5 resuspended cells were taken and centrifuged at 300 g for 5 min, with the supernatant discarded. The cells were washed with PBS, resuspended by adding 500 μl of diluted 1×Annexin V Binding Buffer working solution, and then a staining solution of 5 μL of Annexin V-FITC and 5 μL of propidium iodide (PI) were added and mixed well by vortex, followed by incubation at room temperature in the dark for 15-20 min, and detection on the instrument. Specifically, the Annexin V-FITC/PI fluorescent dual staining cell apoptosis detection kit (Wuhan Pricella Life Science & Technology Co., Ltd., Cat. No.: P-CA-201) was used.

GhNINJA = assay: Yeast two hybrid with GhNINJA; assay type: binding, cotton
Description: The study on Arabidopsis had shown that the inhibition of JAZ protein on JA signaling was mainly achieved by inhibiting the transcription factor function of MYC, which had been experimentally verified by us in cotton. Based on the phylogenetic tree of Arabidopsis and cotton JAZs, we screened 6 cotton JAZs (GhJAZ1, GhJAZ7, GhJAZ9, GhJAZ10, GhJAZ11 and GhJAZ31), which were analyzed with GhMYC2, GhNINJA, GhTPL, GhHDA6, and GhCOI1 for yeast two hybrid. The amino acid sequence of GhJAZ1 was set forth in SEQ ID No. 4, and the corresponding encoding gene sequence was set forth in SEQ ID No. 39; the amino acid sequence of GhJAZ7 was set forth in SEQ ID No. 7, and the corresponding encoding gene sequence was set forth in SEQ ID No. 42; the amino acid sequence of GhJAZ9 was set forth in SEQ ID No. 2, and the corresponding encoding gene sequence was set forth in SEQ ID No. 37; the amino acid sequence of GhJAZ10 was set forth in SEQ ID No. 3, and the corresponding encoding gene sequence was set forth in SEQ ID No. 38; the amino acid sequence of GhJAZ11 was set forth in SEQ ID No. 5, and the corresponding encoding gene sequence was set forth in SEQ ID No. 40; and the amino acid sequence of GhJAZ31 was set forth in SEQ ID No. 9, and the corresponding encoding gene sequence was set forth in SEQ ID No. 44. […]

D3 domain deficient uPAR = target: T1, D3 domain deficient uPAR (Homo sapiens, UniProt Q03405, DEL192-274); assay: Yeast two hybrid with D3 domain deficient uPAR; assay type: binding
T1 construct: expressed in transfected cells; host or cells: yeast Y2HGold
Text: […]

Chain of GhNINJA (as listed by the source): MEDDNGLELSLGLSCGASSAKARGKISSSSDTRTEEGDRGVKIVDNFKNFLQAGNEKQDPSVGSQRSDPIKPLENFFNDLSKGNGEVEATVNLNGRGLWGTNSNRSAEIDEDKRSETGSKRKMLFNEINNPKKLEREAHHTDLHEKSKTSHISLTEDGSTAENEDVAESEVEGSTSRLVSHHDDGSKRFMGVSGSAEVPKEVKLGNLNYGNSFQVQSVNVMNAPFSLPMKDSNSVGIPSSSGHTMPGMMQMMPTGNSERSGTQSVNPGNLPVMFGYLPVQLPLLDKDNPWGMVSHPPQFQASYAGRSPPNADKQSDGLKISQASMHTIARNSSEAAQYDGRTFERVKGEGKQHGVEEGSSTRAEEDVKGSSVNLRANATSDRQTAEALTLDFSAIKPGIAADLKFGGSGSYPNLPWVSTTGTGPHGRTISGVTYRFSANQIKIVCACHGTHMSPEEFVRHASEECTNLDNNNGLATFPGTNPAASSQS
T1 sequence (Q03405 with tags, fused parts or gaps DEL192-274): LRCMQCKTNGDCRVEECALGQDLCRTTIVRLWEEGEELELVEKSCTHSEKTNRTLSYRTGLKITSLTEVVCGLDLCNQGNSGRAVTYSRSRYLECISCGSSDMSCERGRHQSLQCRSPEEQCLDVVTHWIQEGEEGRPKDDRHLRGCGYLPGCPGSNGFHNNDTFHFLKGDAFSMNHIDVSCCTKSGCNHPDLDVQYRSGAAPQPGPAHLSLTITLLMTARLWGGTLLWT

B1: GhJAZ1: cotton JAZ1 protein, gene number Gh_A05G0260, sequence SEQ ID No. 4; prokaryotically expressed with His tag, about 30 KD (protein)
chain: MSSCSESTAMKPARSPEKPSFAQTCNLLSQYLKEKGSFGDLSLGMTCNVEANGTPVVPPPTMNLFPLNDKSDDVCGRNGGNPKNLTSMDLFPQQAGLASKDDSPNKLEPQTAPMTIFYGGQVIVFNDFPANKAKEIMLLASNSSSQSNNSFNPIPFTSSIARSPIESSIGVPPTSKPVHPAQRAVPGDLPIARRASLHRFLEKRKDRITAKAPYQINNSAAAPSLSGDNKSWLGLAAQSP
modifications: His tag
notes: prokaryotically expressed with His tag, about 30 KD
- apoptosis rate of cancer cells (MCF7) (MCF7 breast cancer cells): increased
- interaction with GhNINJA (GhNINJA): interacted
- interaction with D3 domain deficient uPAR (D3 domain deficient uPAR): significantly weakened to none
